Data as given in publication PMC8260561 (Cell Reports, 2021).

Target: S1-mFc (SARS-CoV-2 S1 subunit, fusion protein with murine Fc part) (SARS-CoV-2 Wuhan-Hu-1 (MN908947), UniProt P0DTC2)
Test: ELISA

B1: STE90-C11 IgG (human IgG1 with silenced Fc) (antibody, V domains shown)
VH: QVQLVESGGGLVQPGGSLRLSCAASGLTVSSNYMSWVRQAPGKGLEWVSVIYSGGSTYYADSVKGRFTISRDDSKNTLYLQMNSLRAEDTAVYYCARDVADAFDIWGQGTMVTVSS
VL: DIVMTQSPSFLSASVGDRVTITCRASQGISSYLAWYQQKPGKAPKLLIYAASTLQSGVPSRFSGSGSGTEFTLTISSLQPEDFATYYCQQLNSYPPFTFGPGTKVDIK
- EC50: 0.2 nM
